In the assay the target is trypsin from bovine pancreas (Sigma, St. Louis) (bovine) (UniProt P00760). The experiment in a line: inhibition kinetics of trypsin (0.005 µM) digesting EGFP-T/C1 at 0-100 nM leupeptin, absorbance at 490 nm, fitted with Enzfitter.

Here are results for one substance from patent US20150010920A1.

Sequence of trypsin from bovine pancreas (Sigma, St. Louis) (bovine) (P00760 24-246): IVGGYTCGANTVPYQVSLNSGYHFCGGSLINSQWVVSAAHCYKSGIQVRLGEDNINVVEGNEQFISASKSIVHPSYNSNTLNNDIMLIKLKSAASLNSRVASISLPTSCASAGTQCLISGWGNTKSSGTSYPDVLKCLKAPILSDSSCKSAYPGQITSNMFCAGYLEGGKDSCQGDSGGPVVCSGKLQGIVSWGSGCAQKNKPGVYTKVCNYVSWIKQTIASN

The substance leupeptin (Sigma, St. Louis) (peptide) yielded a Ki of 31.1 nM.

The term Ki denotes a dissociation constant, usually derived from enzyme kinetics or from competition with a known ligand.
